Measurements published in PMC5498717.

Biological target: GST
Assay: cross-linking; BS3 0.25 mM, 15 min at RT in PBS with 1 mM DTT, proteins mixed about 1:1; SDS-PAGE, anti-His and anti-GST Western blots

GST (natural protein), sequence (P08515 2-218): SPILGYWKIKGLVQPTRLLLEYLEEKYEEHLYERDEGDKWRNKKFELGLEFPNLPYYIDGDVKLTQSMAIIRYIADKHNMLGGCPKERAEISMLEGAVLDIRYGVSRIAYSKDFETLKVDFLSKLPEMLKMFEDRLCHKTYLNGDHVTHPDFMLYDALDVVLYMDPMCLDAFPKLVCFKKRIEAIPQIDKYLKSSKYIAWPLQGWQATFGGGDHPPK

stoichiometry N: 2
Substance: GST (natural protein)
